In a protein production outcome set (Wang et al. 2014) one finds protein production data, which are given here for 18 sequences.

This data set in a line: label from the status in PepcDB records.

On to “MVIIGSKGCAKEILTALKWDNVEETVSLFDNINTDISDAYYDFPIIKSWNELEQHLKTDSKVIIGVGGGQRREVLARKIACLGGVLTTFISQKALVGGYDNTIEPGVVILSGATITCNVSIGQGTFINKSTVISHDVRIGRYCEVSPGAKVLGRAIIGDRTEIGANAVILPDVIVGADCKIGAGAVVTRNIDSHTTVAGVPARSITKSSNNAFKLKSKIRNLLYHIRIADFRKLREYNHYVFGKRKLMFLELLSHSWMYGASFENYYELQFFKKSRTECRQYLTSSLRHELTRQVNDPCEALVLKDKVRFSEVFEDILGRRVMTFDEIKRQMHDPYSISINEVVIKPIKGQAGQGIIFPMQNFTSLRQLHDYVISTVKKPDEYLYEERIIQHSALNKLNPSSLNTLRIVTYYDESINKVDVWSVVLRIGIKARTDNFATGGIAVLVDHRGVVCQPAIIKHPSGERFHIHPVSGEKITGCIIPYYDQAIALAKQAAMRIPKVRSIGWDVAITETGPYMLEGNDNWCMTLFQLPGGEGLRHLANSVCNMFSVYE”, for which the protein production entry was “failed”. For the sequence “MVIIVSMKANGFFDEQSSLKKSKIGLNLVWMFSLGHIFLITLSNVLVQYPFDMMGFHTTWGAFTYPAIFILTDLTTRIATANKARKIIMLSMTPGLILSYLVASYIEAGNNLNESGLSVLHLMPLRIALACFIAYVVGQLLDVAVFQRYRNRPAWWLAPTLSAVAGNFIDTALFFTIAFYHCSNPFLSQNWPEIAMVDVFFKIMISLIAFVPVYGLVLSILGIKTTNKLMV”, the protein production result is recorded as “failed”. In the case of “MVIRELNNNWQSHAFDGYEVNWTEQQQTVSCLHTLVYPLAQGQGLHVTGISWNSTGSVLACAYGRLDDGDWSTLKSYVCTWNLDRQGLNPQQPSVVVEVPSAVMCLAFHPTQPSHIAGGLYSGEVLVWDMSRPEDPLLWRTGLTDDTHTDPVYQVLWLPEPRHSHRFQVLSAATDGKVLLWRGSGAGQLRLTKGFALAVQQLPRSTKLKKPPRGETEVGVTSVAFSSFDSSLFVLGTEGGFPLKCSLASEVAALTRMPSSVPLRAPVQFTFSPHGGPVYSVSCSPFHRNLFLSAGTDGHVHLYSMLQAQPLTSLQLSHKYLFAVRWSPVRPLVFAAASGEGDVQLFDLQKSSQKPTVSITQTQDGSPVYCLEFNSQQTQLLAAGDAKGMVKVWQLSTAFTEQGPREVEDLDQLEAEITT”, the protein production result is “failed”.

In the case of “MVISLVIVAVTATEIFEIVELPFEKTLSAISVGSLFNFSVAVVSKSGYLGVFGLMALESTFIPVPSEVILPLSGYLVYIHTFTFAAIIADAIVASMVGSFIDYYLGLYIGRPIIVKILGFFYVKEDSLVKAENWIDRWGASSVFFARFIPGIRSLISIPAGMLKMKVWVFALMTFLGSVIWSTILVYIGFKAGPYWSSAVHSFSVILDQIIIDAIFAACLAYIGYFIYLKIKTRTKPSY”, the protein production result is reported as “failed”. “MVKDSEFLTLVFQSILDEIDVGLHVVDEHGNTIVYNNKMMQIEDMEKHDVLNKNLMDVFMFSKQQDSTLVQALQEGKTIKNVKQSYFNNKGQEITTINHTYPIVQDGKIRGAVEIAKDVTKLERLIRENMNKKGSTTYTFDSILGTSPAIQDVIENAKRATRTSSSVLLAGETGTGKELFAQSIHNGSDRSGGPFISQNCAALPDSLVESILFGTKKGAFTGAVDQPGLFEQAHGGTLLLDEINSLNLSLQAKLLRALQERKIRRIGSTKDTPIDVRIIATMNEDPIDAIAGERMRKDLYYRLSVVTLIIPPLRERKEDILLLASEFIQKNNHLFQMNVEHISDDVKQFFLSYDWPGNIRELEHMIEGAMNFMTDEQTITASHLPYQYRMKIKPADIPEPETPRHQPAADLKEKMESFEKYVIENVLRKHGHNISKAAQELGISRQSLQYRLKKFSHSSNE”: the protein production entry is reported as “failed”. The entry for “MVKELIEQGANVTGLVRDHVPQSNLYQGEHIKKMNIVRGSLEDLAVIERALGEYEIDTVFHLAAQAIVGVANRNPISTFEANILGTWNILEACRKHPLIKRVIVASSDKAYGDQENLPYDENMPLQGKHPYDVSKSCADLISHTYFHTYGLPVCITRCGNLYGGGDLNFNRIIPQTIQLVLNGEAPEIRSDGTFVRDYFYIEDAVQAYLLLAEKMEENNLAGEAFNFSNEIQLTVLELVEKILKKMNSNLKPKVLNQGSNEIKHQYLSAEKARKLLNWTPAYTIDEGLEKTIEWYTEFFKK” is “failed”. On to “MVKHARVRAPELVGRGGWINTGDRELSLAALRGRIVVLDFWTFCCVNCLHALDELRELEERHRDTVVIVGVHSPKFTHEAEHRAVLDAVERYSVEHPVLDDPERVTWRQYAVRAWPTLAVIDPEGYVVAQYTGEGHAHAIQRLVEELEARHAAKGTLRRGDAPYVAPEPEPTTLRFPGKAVSLPSGTFLVSDTTRHQLVELAEDGESPVRRIGSGRRGFTDGPADRAEFSEPQGLALLGDGSVVVADTVNHALRRYEPVTGEVTTLAGTGRQHRPGEPSRGAARAVSLSSPWDVALWNDRVWIAMAGVHQLWAYDPRDGSVTVTAGTGNEGLVDGPGPEAWFAQPSGLSATDDRLWVADSETSALRWVELDGTVRTAVGTGLFDFGHRDGPAARALLQHPLGVAALPDGSVVVADTYNHALRRYAPPTGEVSTLATDLREPSDAVVVGGDVLVVESARHRLTRLRLPHDALGTGSGEAVLRGTTEAAPGTLRLEVAFRALAGQKLDQRYGPATRLLVSATPPELLRAGEGAGTELSRSLDLDPSVPEGMLHVSATAASCDDDLDVPYPACHVHQKDWKIPVRLVEGASDRLPLVLTGVDTA”, for which the protein production entry was “failed”. The entry for “MVKHLQVRGRLYYRSLAHGLRLTMRRLLFCFLLVLTSLTAIAAEPARPKVGLVLSGGAARGLAHIGVLKALEEQGVRIDAIAGTSMGAVVGGLYASGYSVEELEKLATTLDWQQALSDAPPREDVPFRRKQDDRDFLVKQKLSFRDDGSLGLPLGVIQGQNLSLLLESKLAHTADTRDFDKLPIPFRAVATDIASGEKVVFRRGHLPQVIRASMSIPAVFAPVELDGRLLVDGGMVDNIPVDVAREMGVDLAIVVDIGTPLRDRKQLLTVVDVLNQSITLMTRRNSEEQLASLHRDDILIQPSLTAFGVTDFGRARHMIDAGYRATRLLDPRLAALRQLEGDASLAVARSPRQRTPVITAIRIENDSKVSDDVIRSYIRQPIDAPLELDRLQTDMGTLYGLDYFDRVQYRVVHKGNDHTLVINARGRRGGTDYLRLGLNLSDDLRGDSAFNLGASYRVNGINSLGAEWLTRGQIGDQQALYSEFYQPLDVGSRYFIAPYLDLGSQNIEATLDNDPVAEYRLERYGFGLNVGRQIGNSGEVRLGVGKAWGEAEVRIGDQDLPKVSFNEGFYELKYSFDTLDNVYFPHHGEDIGLTLRKYDKSLDSDQDYRQWLFTLDKAISSGPNTFVLGGSYGRTLDDTEVVTSSFVMGGARQLSGFREDSVSGQNASLLRMVYYRRLTPRAYVPLDFPLYIGGSLERGRAWNNDNEFDSGYINAASIFLGLDTPLGPLNFSYGANSAHEQAVYLNLGHTF” is “failed”; for “MVKHQQTPAYIAAILYSFIIGLSFLFVKIALQTAEPFDILAHRFTIAFAAATVPILFGWVKLSILVKDVIDILPLALLYPALFFSFQAFGLVYSSSSEAGIIQAAIPIFTMVFAAYVLKERPTWTQKGFTVLSVAGVMFIFVMKGVDVESASLKGSLLILLSALSSAMYNTAARKMTQRFKLTELTYIMSAIGFVVFNAIALVRHGAAGTVGTYFLPFREPGFVLAIVYLGVLSSLVTSFLSNYTLSRIEAFKMSAFNHVSTIVTMIAGFVILNESLAWYHLAGAVCIMIGVVGSNINLEKKTKRPGMPAKK” it is “failed”. Take “MVKNGQSKRQPWVKNLYSNREYPDNYTDASFLKDLRTNLHCRIYTFGEAIAGITVLNNQISCITGFLILYQLMLSDSVSPTTILVPSCGITGIGYLCYRGRSLSWALLGEDSKTLVTVVLFGYLFSPMLHTLTQAISTDTIYTMTFFVLLGNLIFGHYGLDVAMVSKVGNIYGYWSQAVSLNAAIFGAICLASRLPTSYHAFVLLVEAAVFFVLYPIMTEANWHAGFMLPIFAICCMALYCISRPVLYLYASTTIFINFVCPFIFVWQQQYKFNIHGPWDEAIVEENTEENLDGNL”: the protein production result was “failed”. With “MVKVIFFDLDDTLVDTSKLAEIARKNAIENMIRHGLPVDFETAYSELIELIKEYGSNFPYHFDYLLRRLDLPYNPKWISAGVIAYHNTKFAYLREVPGARKVLIRLKELGYELGIITDGNPVKQWEKILRLELDDFFEHVIISDFEGVKKPHPKIFKKALKAFNVKPEEALMVGDRLYSDIYGAKRVGMKTVWFRYGKHSERELEYRKYADYEIDNLESLLEVLARESSSNKKVHPPRQQI” the entry was “not failed”; with “MVKVTYDGVYVLSVKDDVPAADVLHAGDLITEIDGNAFKSSQEFIDYIHSKKVGDTVKINYKHGDKNEQADIKLTAIDKKGTPGIGITLVDDLEHHHHHH”, “not failed”.

As for “MVKVYAPASSANMSVGFDVLGAAVTPVDGTLLGDVVSVEAADHFRLHNLGRFADKLPPEPRENIVYQCWERFCQALGKTIPVAMTLEKNMPIGSGLGSSACSVVAALVAMNEHCGKPLNDTRLLALMGELEGRISGSIHYDNVAPCFLGGMQLMIEENGIISQ”, the protein production result is listed as “failed”.

As for “MVKWYKTYLEVYGKSFDEISDDSIRKVKRQLKERQNDSPLVSVVLIAHNEERHLISCIWSLSENHCHFPIEIIAVNNNSTDKTEEILKSLGVTYYNETKKGPGYARQCGLDHAKGKYHICIDADTLYPPHYIETHVKYLMNPKVACTFSLWSFMVDERHSRFGLWCYEGLRDIYLRLQAIQRPELCVRGMAFSFNTEIGRRFGFRTDIIRGEDGSLALAMKPYGKIVFITSRKARVLTSNGTLNSEGSLIDNIWIRVIKALKEITGLFIKKTAYKDKDSNLIKLEHHHHHH”, the protein production entry is given as “failed”. With “MVLAVLFPTYPAYEFAGYALPGVSTTLGVFSLTVLTNTVLFALAYPLVLGARNALTGNVSVVMFVGRRVAADDLATVHGSLLESSAGGFTRSGLDLDALRMYLRWRDCTLADLRSDPGLRHPDTLPDTPGDPTDGAVATDGSGDPWGAAAFLADIDHSAYGTTPAQLRDGLDLITDHDDVWVTPGVPFLLPLFAGLVVALTFGDVLFYVLDALGFAAA” the entry was “failed”; with “MVLEHCRDAIESHGVETDIISLRGMKIESCRACLSCAKKHRCRIDDGLNDIIDRIRDSEGFIVATPVYFGTARGDLMAALQRIGMVSRASDGFLSWKVGGPIAVARRGGHTATIQELLMFYFINDMIVPGSTYWNMVFGWAPGEVEDDSEGIETIRRFGENVAELIKRINGGSLEHHHHHH”, “failed”; with “MVLLSIDFASLHTILESLYNEMMPLCEDMLGVAKGVAGLGALFYVALRVWQSMARAEPVDVYPLLRPFALGICILLFPTLVLGTMNSILSPIVQGTHRMLEGQTLDMQQYRAQKDRLEREAMMRNPETAYLVSDEEFDRQLDELGWSPGDAATRLGMYMEVGMYNLEKSIRDAFRSLLELLFAAASLLIDTVRTFFLVVLSVLGPIAFSISVWDGLQSTLGQWFTRYISVYLWLPVSDLFSCMLAKIQVLMLQNDIAELQGNPDYSLDNSNCVYIIFMLIGIVGYFTVPTVSGWIVQAGGGGNYSRNLNRTATKAGGFTAGAGGAALGNIGGRIRGK”, “failed”.

With “MVLPPVFYLARMWLMSQDSRVFFRIFFGIGLVLILISVVIFYNQFTYSKDAIHTEGVIVDTVWHSSHSHRTGKNGSWYPVVAFRPTPDYTLIFNSSIGSDFYEDSEGDKVNVYYSPGHPEKAEINNPWVNFFKWGFIGIMGVIFISVGLLISMPSSKKTRRKRKSRP”, the protein production entry was “failed”.
